From patent CN114773459A (UNIV SHENZHEN, dated 2022)

Molecular target: 新型冠状病毒(SARS-CoV-2) S1蛋白 (野生型) (SARS-CoV-2, UniProt P0DTC2 16-685)

B1: 纳米抗体Nb-H6 (VHH)
VHH: QLVESGGGLVQAGDSLRLSCAASERALSSFHMGWFRQAPGKQRAFVAAIKWRDGTTYYADSVKGRFTISRDNAKNTVYLQMNSLEPEDTAVYYCYYRGRWGTYWGQGTQVTVSS
With B1 the IC50 was 9.8 µM.
